From patent publication US20220154221, “SITE SPECIFIC RECOMBINASE INTEGRASE VARIANTS AND USES THEREOF IN GENE EDITING IN EUKARYOTIC CELLS” (RAMOT AT TEL-AVIV UNIVERSITY LTD., published 2022) come the findings set out here.

One data set addresses T1, HK022 Int E174K+D278K (Bacteriophage HK022, UniProt P16407 SEQ:1-357, E174K,D278K).
T1 sequence: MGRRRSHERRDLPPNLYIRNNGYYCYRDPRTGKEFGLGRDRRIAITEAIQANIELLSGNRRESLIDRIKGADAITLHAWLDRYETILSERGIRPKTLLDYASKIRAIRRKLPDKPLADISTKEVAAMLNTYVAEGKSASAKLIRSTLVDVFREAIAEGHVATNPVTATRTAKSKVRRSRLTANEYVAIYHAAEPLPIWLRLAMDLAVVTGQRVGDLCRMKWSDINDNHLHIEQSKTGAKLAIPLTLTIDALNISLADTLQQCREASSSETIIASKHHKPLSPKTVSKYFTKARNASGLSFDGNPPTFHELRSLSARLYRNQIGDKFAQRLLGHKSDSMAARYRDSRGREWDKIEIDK
The experiment in a line: cell_activity; genomic RMCE at DMD2/DMD3, HEK293. Conditions: chain copies: 4. The protocol:
(§1) Plasmid transformations were performed by electroporation (Sambrook, J., et al (1989) Cold Spring Harbor, N.Y.). Plasmids and oligomers are listed in Tables 1,3,5 and 2,4,6 respectively. Human embryonic kidney cells HEK293, 293T, and 293 Flp-In were cultured in Dulbecco's modified Eagle's medium (DMEM). For transient transfection 293T cells (˜6×10⁵) were plated in a 6 well plate and 24 h later treated with 3 μg of the proper plasmid DNA using PureFection Transfection Reagent (System Biosciences, Mountain View, Calif., USA). For the model chromosomal assay transfection, 293 Flp-In cells (˜6×10⁵) were plated in a 6 well plate and 24 h later treated with 5.5 μg of the proper plasmid DNA using Mirus Transfection Reagent (Mirus, Wis., USA). For the CTNS and DMD chromosomal assay transfection, HEK293 cells (˜6×10⁵) were plated in a 6 well plate and 24 h later treated with 3 μg of the proper plasmid DNA using PureFection Transfection Reagent.
(§2) In the DMD model, DMD2 and DMD3 “attB” sites were chosen which are 23 Kb apart located in introns 43 and 44 respectively that flank exon 44 (FIG. 12B). The relevant deletion mutation located in exon 44 is described (GM23715, Coriell institute). A GFP promoter trap whose incoming plasmid carried a splicing acceptor (SA), a ribosomal skipping site (2A) and the ORF of EGFP with a polyA sequence (FIG. 12A) was used. All are flanked with the two relevant “attP”s 1.4 Kb apart. […] The correct sequence of all PCR products was confirmed by NGS.

For data set [1], the target named is T2, HK022 Int E174K+I43F+R319G (Bacteriophage HK022, UniProt P16407 SEQ:1-357, I43F,E174K,R319G).
T2 sequence: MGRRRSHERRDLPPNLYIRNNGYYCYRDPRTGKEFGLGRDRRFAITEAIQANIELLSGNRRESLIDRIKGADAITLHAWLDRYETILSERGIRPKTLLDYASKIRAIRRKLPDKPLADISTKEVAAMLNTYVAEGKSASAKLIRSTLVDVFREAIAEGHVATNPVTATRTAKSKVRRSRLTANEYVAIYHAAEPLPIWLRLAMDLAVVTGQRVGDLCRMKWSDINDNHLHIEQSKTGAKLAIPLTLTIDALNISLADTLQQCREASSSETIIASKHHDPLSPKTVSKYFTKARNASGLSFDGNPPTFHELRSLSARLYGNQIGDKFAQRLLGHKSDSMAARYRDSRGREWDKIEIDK
The experiment in a line: cell_activity; genomic RMCE at DMD2/DMD3, HEK293. Conditions: chain copies: 4. On the procedure:
as §1, §2

Another data set has as its target T3, HK022 Int E174K (Bacteriophage HK022, UniProt P16407 SEQ:1-357, E174K).
T3 sequence: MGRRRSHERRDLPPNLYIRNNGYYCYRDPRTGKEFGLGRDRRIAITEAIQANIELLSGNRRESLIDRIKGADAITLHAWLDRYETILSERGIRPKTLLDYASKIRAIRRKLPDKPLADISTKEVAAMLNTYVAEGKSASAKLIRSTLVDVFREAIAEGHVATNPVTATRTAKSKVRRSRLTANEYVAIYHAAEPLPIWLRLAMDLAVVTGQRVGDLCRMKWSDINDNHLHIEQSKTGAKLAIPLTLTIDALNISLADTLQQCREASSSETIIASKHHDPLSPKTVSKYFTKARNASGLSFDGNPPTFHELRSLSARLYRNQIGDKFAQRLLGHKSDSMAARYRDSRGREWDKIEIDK
The experiment in a line: cell_activity; trans attB x attP, HEK293T (Example 8 quotes 147%). Conditions: chain copies: 4. The protocol: (§3) To examine the activity of these Int variants, an analytic assay was performed of a transient trans integrative recombination reaction using the wild type attB and attP sites in human HEK293T cells in which each att site is located on a different substrate plasmid (FIG. 2B). The first substrate (pMK221) carries the attP site downstream to the cytomegalovirus promoter (CMV). The second plasmid (pMK223) carries the attB downstream to the open reading frame (ORF) of the green fluorescent protein (GFP) and upstream to a transcription terminator (Stop).
(§4) A productive attB×attP reaction forms a dimer plasmid encoding CMV-promoted GFP expression (FIG. 2B). HEK293T cells were co-transfected with these two substrate plasmids, with or without an Int-expressing plasmid (the oInt pNA979, or one of its Int mutant derivatives). 48 hours post-transfection GFP expressing cells were analyzed by fluorescence-activated cell sorting (FACS).

Data set [2] addresses T4, HK022 integrase (oInt / wild type) (Bacteriophage HK022, UniProt P16407 SEQ:1-357).
T4 sequence: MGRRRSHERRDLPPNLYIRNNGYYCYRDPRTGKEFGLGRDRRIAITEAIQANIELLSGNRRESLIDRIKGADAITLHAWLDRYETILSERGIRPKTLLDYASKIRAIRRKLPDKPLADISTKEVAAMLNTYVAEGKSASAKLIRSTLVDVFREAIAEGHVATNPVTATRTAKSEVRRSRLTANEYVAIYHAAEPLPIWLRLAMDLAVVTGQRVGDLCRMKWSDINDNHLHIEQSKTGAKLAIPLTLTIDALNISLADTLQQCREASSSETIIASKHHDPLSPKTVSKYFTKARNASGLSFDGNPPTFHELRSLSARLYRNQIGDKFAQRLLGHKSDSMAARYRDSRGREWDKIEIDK
Nature of the data set: cell_activity; trans attB x attP integration, HEK293T, reference. The note with it: tags: human codon-optimised (oInt) in human cells; native gene in E. coli; chain copies: 4. The protocol:
as §3, §4

The target of the next data set is T5, HK022 Int D278K (Bacteriophage HK022, UniProt P16407 SEQ:1-357, D278K).
T5 sequence: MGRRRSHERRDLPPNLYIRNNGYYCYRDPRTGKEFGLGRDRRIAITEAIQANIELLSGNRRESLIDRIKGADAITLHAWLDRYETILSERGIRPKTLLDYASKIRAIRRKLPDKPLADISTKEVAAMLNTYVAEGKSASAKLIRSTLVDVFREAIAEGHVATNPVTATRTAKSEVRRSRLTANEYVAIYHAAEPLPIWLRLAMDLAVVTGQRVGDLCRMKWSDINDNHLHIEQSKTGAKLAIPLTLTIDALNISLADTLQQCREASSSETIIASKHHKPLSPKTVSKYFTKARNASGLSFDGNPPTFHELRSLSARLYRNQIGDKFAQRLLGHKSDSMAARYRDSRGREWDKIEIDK
Nature of the data set: cell_activity; trans attB x attP, HEK293T. Conditions: chain copies: 4. On the procedure: as §3, §4

Data set [3] concerns the target T2, HK022 Int E174K+I43F+R319G. Nature of the data set: cell_activity; trans attB x attP, HEK293T. The note with it: chain copies: 4. On the procedure:
as §3, §4

B1: DMD2 attB (dsDNA)
DNA 1: TTGCTTAATGGAGAAAAGGTA
DNA 2: TACCTTTTCTCCATTAAGCAA
As to B1, the activity (in the data set with HK022 Int E174K+D278K; in data set [1]) was 0.4 % cells throughout.

B2: DMD3 attB (dsDNA)
DNA 1: GTGCTTTAAAAAGAAAAGGGG
DNA 2: CCCCTTTTCTTTTTAAAGCAC
For B2, the activity (with HK022 Int E174K+D278K; in data set [1]) was 0.4 % cells throughout.

B3: wild-type attB (dsDNA)
DNA 1: GCACTTTAGGTGAAAAAGGTT
DNA 2: AACCTTTTTCACCTAAAGTGC
With B3, the “recombination activity (GFP+ cells, relative to oInt)” value with HK022 Int E174K is 1.54 fold of oInt. In addition, in data set [2], the integrative recombination activity is 1 fold of oInt. Besides, the values for the integration activity (with HK022 Int D278K; in data set [3]) were 1.48 fold of oInt and 2.3 fold of oInt, respectively.
